Molecular target: the molecule itself
Assay: crystal structure; in meso crystals of the Bpe-S8 complex; 26% PEG 550MME, 0.1 M sodium citrate, pH 5.0; 2.8 A

B1: Fluoride channel from B. pertussis (Fluc homolog Bpe) (natural protein)
chain: MLTYAPLNFIAIGIGATLGAWLRWVLGLRLNGAGWPWGTLTANLVGGYLIGVMVALIASHPEWPAWIRLAAVTGFLGGLTTFSTFSAETVDMLERGVYATAAAYAGASLAGSLAMTGLGLATVRLLLR
notes: Fluc family fluoride ion channel homolog Bpe from B. pertussis; homodimer of two antiparallel subunits (subunits A and B in PDB 6BQO); pET21c with Bpe gene, C-terminal hexahistidine tag; Construct as in Stockbridge et al., 2013; also called Fluc channel; Fluc homologue "Bpe"; source: E. coli, purified (as described in Stockbridge et al., 2013); reconstituted into liposomes for …
For B1, the “stoichiometry N” value was 2.
